One experiment addresses CD40 on B cells (UniProt P25942 21-277, limits assumed). Kind of experiment: cell-based or functional assay.
Experiment [1] has as its target T1, Fc-fused CD40 (Ancell, #504-820) (human, UniProt P25942 21-193).
T1 construct: not shown: Fc part of a bought fusion protein
Kind of experiment: ELISA, Fc-fused CD40 coated at 0.05 ug/ml, IgG in serial dilution, anti human Ig-Fc-HRP. Here is the method:
For the CD40 binding ELISA, high binding flat bottom LIA plates (Greiner #655074) were coated with Fc-fused CD40 (Ancell, #504-820) at 0.05 μg/ml, and milk powder were used at 3% for blocking and at 1% for dilution. The antibodies to be tested were added in serial dilutions starting at 2000 ng/ml and detection was carried out using HRP conjugated goat anti human Ig-Fc (Jackson ImmunoResearch, #109-035-098) and Super Signal Pico Chemiluminescent (ThermoScientific, #37069) was used as substrate.
A general note: An ELISA detects its analyte on a solid surface through an enzyme-linked reagent.

Experiment [2] deals with T2, LTBRhfc (R&Dsystems, USA) (human, UniProt P36941 28-227, limits assumed).
T2 construct: Bought protein; also called Fc-fused LTBR (R&D Systems, #629-LR); not shown: Fc part ('hfc') of a bought fusion protein
Nature of the experiment: SPR (Biacore 3000), LTBRhfc amine-coupled to CM5, IgG as analyte, 37 C, pH 7.3. As to the method:
The LTBR binding antibody clones were screened, selected and cloned into full IgG format as described above for CD40. Binding to LTBR for two selected anti-LTBR antibody clones was characterized by surface plasmon resonance (SPR). SPR analysis of LTBR antibodies was performed according to standard protocols. The LTBRhfc (R&Dsystems, USA) was immobilized to the BIAcore sensorchip, CM5, using conventional amine coupling. The anti-LTBR antibodies (serially diluted ⅓ from 1-0.012 nM) were analysed for binding in HBS-P (GE, BR-1003-68) at a flow rate of 30 μl/min at 37° C. and pH 7.3. The association was followed for 3 minutes and the dissociation for 10 minutes. Regeneration was performed twice using 50 mM NaOH for 30 seconds. The kinetic parameters and the affinity constants were calculated using BIAevaluation 4.1 software, and samples were run, using the Biacore 3000 instrument according to manufacturer's protocols.

The values below come from patent US20170002061A1 (ALLIGATOR BIOSCIENCE, published 2017).

For orientation: EC50 means the concentration at which the effect is half-maximal. A higher EC50 goes with weaker potency. For orientation: Kd means a measure of binding affinity in units of concentration. High values mean lower affinity, low ones higher affinity. As a reminder, the koff is the first-order rate constant of dissociation. A higher koff goes with fast dissociation. What is called kon is the rate constant with which the complex forms. A lower kon goes with slower complex formation.

T2 sequence (P36941 28-227 limits assumed): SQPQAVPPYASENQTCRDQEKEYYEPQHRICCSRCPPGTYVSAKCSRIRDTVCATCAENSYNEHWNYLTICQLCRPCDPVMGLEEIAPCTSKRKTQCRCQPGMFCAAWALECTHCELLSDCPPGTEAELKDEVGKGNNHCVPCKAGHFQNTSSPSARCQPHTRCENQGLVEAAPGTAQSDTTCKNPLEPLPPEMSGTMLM
CD40 on B cells, sequence (P25942 21-277 limits assumed): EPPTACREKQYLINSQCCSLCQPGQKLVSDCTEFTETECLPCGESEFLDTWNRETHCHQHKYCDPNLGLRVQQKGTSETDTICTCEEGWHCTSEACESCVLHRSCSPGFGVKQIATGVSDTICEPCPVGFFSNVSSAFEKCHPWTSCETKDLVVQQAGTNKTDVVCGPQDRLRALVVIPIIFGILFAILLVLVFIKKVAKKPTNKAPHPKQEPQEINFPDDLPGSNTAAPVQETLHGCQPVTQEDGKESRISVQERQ
T1 sequence (P25942 21-193 limits assumed): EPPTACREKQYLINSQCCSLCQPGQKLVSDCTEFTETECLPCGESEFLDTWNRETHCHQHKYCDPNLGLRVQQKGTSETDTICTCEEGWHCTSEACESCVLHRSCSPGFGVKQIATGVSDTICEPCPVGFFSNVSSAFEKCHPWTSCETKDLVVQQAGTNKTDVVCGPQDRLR

B1: B03 (antibody, V domains shown)
VH: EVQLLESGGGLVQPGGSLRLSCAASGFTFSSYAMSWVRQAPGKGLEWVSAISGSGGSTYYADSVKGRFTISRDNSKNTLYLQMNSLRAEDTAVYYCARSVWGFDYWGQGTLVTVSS
VL: DIQMTQSPSSLSASVGDRVTITCRASQSISSYLNWYQQKPGKAPKLLIYAASSLQSGVPSRFSGSGSGTDFTLTISSLQPEDFATYYCQQGYHVWLYTFGQGTKLEIK
On to B1, for which the “EC50 B cell (ug/ml); B cell proliferation, ATP content by Cell-titer glow” value (“EC50 B cell (ug/ml)” for short) in the experiment with CD40 on B cells was 0.44 µg/mL.

B2: 1136/1137 (antibody, V domains shown)
VH: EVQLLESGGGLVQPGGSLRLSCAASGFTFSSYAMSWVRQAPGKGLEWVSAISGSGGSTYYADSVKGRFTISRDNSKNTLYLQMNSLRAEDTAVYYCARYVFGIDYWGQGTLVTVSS
VL: DIQMTQSPSSLSASVGDRVTITCRASQSISSYLNWYQQKPGKAPKLLIYAASSLQSGVPSRFSGSGSGTDFTLTISSLQPEDFATYYCQQAYYAGLFTFGQGTKLEIK
notes: From library AL2
B2: a half-maximal effect in experiment [1] (EC50) was put at 1.4 µg/mL. Moreover, the “EC50 B cell (ug/ml)” value with CD40 on B cells came to 1 µg/mL.

B3: 1146/1147 (antibody, V domains shown)
VH: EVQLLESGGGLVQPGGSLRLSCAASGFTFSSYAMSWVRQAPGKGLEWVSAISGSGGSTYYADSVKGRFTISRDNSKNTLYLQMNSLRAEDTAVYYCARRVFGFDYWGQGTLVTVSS
VL: DIQMTQSPSSLSASVGDRVTITCRASQSISSYLNWYQQKPGKAPKLLIYAASSLQSGVPSRFSGSGSGTDFTLTISSLQPEDFATYYCQQYYYYPFTFGQGTKLEIK
notes: From library AL2
In experiment [1], B3 registered an EC50 of 0.58 µg/mL. Further, the “EC50 B cell (ug/ml)” value with CD40 on B cells came out at 3.6 µg/mL.

B4: LTBR-3 (antibody, V domains shown)
VH: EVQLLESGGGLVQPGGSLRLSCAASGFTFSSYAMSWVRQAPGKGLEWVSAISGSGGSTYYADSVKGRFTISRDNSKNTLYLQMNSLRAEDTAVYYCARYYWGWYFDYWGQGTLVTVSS
VL: DIQMTQSPSSLSASVGDRVTITCRASQSISSYLNWYQQKPGKAPKLLIYAASSLQSGVPSRFSGSGSGTDFTLTISSLQPEDFATYYCQQGWWYPLTFGQGTKLEIK
notes: From library AL1
Regarding B4, in experiment [2], the Kd was found to be 0.734 nM, the koff was found to be 0.00158 s⁻¹ and the kon stood at 2.23e+06 M⁻¹ s⁻¹.

B5: 1107/1108 (antibody, V domains shown)
VH: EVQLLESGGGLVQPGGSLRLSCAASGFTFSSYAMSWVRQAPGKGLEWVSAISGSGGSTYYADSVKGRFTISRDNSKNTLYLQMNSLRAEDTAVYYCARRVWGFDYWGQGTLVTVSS
VL: DIQMTQSPSSLSASVGDRVTITCRASQSISSYLNWYQQKPGKAPKLLIYAASSLQSGVPSRFSGSGSGTDFTLTISSLQPEDFATYYCQQYGVYPFTFGQGTKLEIK
notes: From library AL1
Regarding B5, in experiment [1], a half-maximal response (EC50) required 0.034 µg/mL. The “EC50 B cell (ug/ml)” value with CD40 on B cells was determined as 0.7 µg/mL.

B6: 1148/1149 (antibody, V domains shown)
VH: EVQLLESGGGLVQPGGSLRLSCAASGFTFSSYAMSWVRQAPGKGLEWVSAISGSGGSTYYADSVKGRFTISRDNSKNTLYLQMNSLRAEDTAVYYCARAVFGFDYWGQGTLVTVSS
VL: DIQMTQSPSSLSASVGDRVTITCRASQSISSYLNWYQQKPGKAPKLLIYAASSLQSGVPSRFSGSGSGTDFTLTISSLQPEDFATYYCQQAYYFPHTFGQGTKLEIK
notes: From library AL2
B6 yielded a 50% effective concentration (EC50) in experiment [1] of 2.2 µg/mL. Also, the “EC50 B cell (ug/ml)” value with CD40 on B cells is 2.3 µg/mL.
